This assay concerns the target Nucleosome with symmetrical linkers of 14 base pairs (nucleosome of the 2Chd1:1Nucleosome complex) (Xenopus laevis). Put plainly: cryo-EM structure; 2:1 complex of ScChd1(1-1305Δ57–88) and a nucleosome with symmetrical 14 bp linkers, ADP-BeFx; envelope at 10-11 Å, two Chd1 and a nucleosome rigid-body docked.

Consider one substance from paper PMC6118821.

In turn, “ScChd1(1-1305Δ57–88) (from UniProt P32657 1-1305) (enzyme)” yielded a stoichiometry N of 2.
